Experimental data reported in US20030157054A1 (Merck KGaA, published 2003).

T1: human epithelial cell adhesion molecule (EpCAM) on the cell surface (human, UniProt P16422 24-314)
T1 construct: whole, on cells; also called KS antigen; KSA
T1 sequence (looked up): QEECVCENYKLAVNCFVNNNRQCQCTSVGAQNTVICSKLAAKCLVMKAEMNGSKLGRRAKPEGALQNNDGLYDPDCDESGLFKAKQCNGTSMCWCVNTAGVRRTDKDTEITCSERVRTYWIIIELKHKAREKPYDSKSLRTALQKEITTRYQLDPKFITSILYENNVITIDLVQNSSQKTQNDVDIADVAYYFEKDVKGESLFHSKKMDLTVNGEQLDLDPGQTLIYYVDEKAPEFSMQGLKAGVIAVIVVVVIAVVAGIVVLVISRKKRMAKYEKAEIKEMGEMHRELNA

B1: VK6/VH6 (Construct 1) (antibody, V domains shown)
VH: QVQLVQSGAEVKKPGESVKISCKASGYTFTNYGMNWVRQAPGKGLEWMGWINTYTGEPTYAQKFQGRVTISLDTSTSTAYLQLSSLRAEDTAVYFCVRFISKGDYWGQGTSVTVSS
VL: EIVLTQSPATLSLSPGERVTLTCSASSSVSYMLWYQQKPGQAPKLLIFDTSNLASGIPARFSGSGSGTDYTLTISSLEPEDFAVYYCHQRSGYPYTFGGGTKLEIK
B2: VK8/VH7 (Construct 3) (antibody, V domains shown)
VH: QIQLVQSGAEVKKPGETVKISCKASGYTFTNYGMNWVKQTPGKGLKWMGWINTYTGEPTYADDFKGRFAFSLETSTSTAFLQINNLRSEDTATYFCVRFISKGDYWGQGTSVTVSS
VL: EIVLTQSPATLSLSPGERVTLTCSASSSVSYMLWYQQKPGSSPKPWIFDTSNLASGFPARFSGSGSGTSYSLIISSMEAEDAATYYCHQRSGYPYTFGGGTKLEIK
notes: Intact antibody with human constant regions (pdHL7 vector); also called KS antibody (Construct 3)
B3: VK0/VH1 (antibody, V domains shown)
VH: QIQLVQSGPELKKPGSSVKISCKASGYTFTNYGMNWVRQAPGKGLKWMGWINTYTGEPTYADDFKGRFTITAETSTSTLYLQLNNLRSEDTATYFCVRFMSKGDYWGQGTTVTVSS
VL: QILLTQSPAIMSASPGEKVTMTCSASSSVSYMLWYQQKPGSSPKPWIFDTSNLASGFPARFSGSGSGTSYSLIISSMEAEDAATYYCHQRSGYPYTFGGGTKLEIK
B4: VK0/VH'369 ('369 chKS-1/4) (antibody, V domains shown)
VH: QIQLVQSGPELKKPGETVKISCKASGYTFTNYGMNWVKQTPGKGLKWMGWINTYTGEPTYADDFKGRFAFSLETSASTAFLQIQQPQNMRTMATYFCVRFISKGDYWGQGTSVTVSS
VL: QILLTQSPAIMSASPGEKVTMTCSASSSVSYMLWYQQKPGSSPKPWIFDTSNLASGFPARFSGSGSGTSYSLIISSMEAEDAATYYCHQRSGYPYTFGGGTKLEIK
B5: VK1/VH7 (antibody, V domains shown)
VH: QIQLVQSGAEVKKPGETVKISCKASGYTFTNYGMNWVKQTPGKGLKWMGWINTYTGEPTYADDFKGRFAFSLETSTSTAFLQINNLRSEDTATYFCVRFISKGDYWGQGTSVTVSS
VL: QIVLTQSPASLAVSPGQRATITCSASSSVSYILWYQQKPGQPPKPWIFDTSNLASGFPSRFSGSGSGTSYTLTINSLEAEDAATYYCHQRSGYPYTFGGGTKVEIK
B6: VK1/VH1 (antibody, V domains shown)
VH: QIQLVQSGPELKKPGSSVKISCKASGYTFTNYGMNWVRQAPGKGLKWMGWINTYTGEPTYADDFKGRFTITAETSTSTLYLQLNNLRSEDTATYFCVRFMSKGDYWGQGTTVTVSS
VL: QIVLTQSPASLAVSPGQRATITCSASSSVSYILWYQQKPGQPPKPWIFDTSNLASGFPSRFSGSGSGTSYTLTINSLEAEDAATYYCHQRSGYPYTFGGGTKVEIK
B7: VK1/VH2.2-IL2 (protein)
VL: QIVLTQSPASLAVSPGQRATITCSASSSVSYILWYQQKPGQPPKPWIFDTSNLASGFPSRFSGSGSGTSYTLTINSLEAEDAATYYCHQRSGYPYTFGGGTKVEIK
VH: QIQLVQSGPELKKPGSSVKISCKASGYTFTNYGMNWVRQAPGKGLKWMGWINTYTGEPTYADDFKGRFTITAETSTSTLYLQLNNLRSEDTATYFCVRFIVSKGDYWGQGTTVTVSS
B8: VK1/VH2-IL2 (protein)
VL: QIVLTQSPASLAVSPGQRATITCSASSSVSYILWYQQKPGQPPKPWIFDTSNLASGFPSRFSGSGSGTSYTLTINSLEAEDAATYYCHQRSGYPYTFGGGTKVEIK
VH: QIQLVQSGPELKKPGSSVKISCKASGYTFTNYGMNWVRQAPGKGLKWMGWINTYTGEPTYADDFKGRFTITAETSTSTLYLQLNNLRSEDTATYFCVRFISKGDYWGQGTTVTVSS
B9: VK1/VH1-IL2 (protein)
VL: QIVLTQSPASLAVSPGQRATITCSASSSVSYILWYQQKPGQPPKPWIFDTSNLASGFPSRFSGSGSGTSYTLTINSLEAEDAATYYCHQRSGYPYTFGGGTKVEIK
VH: QIQLVQSGPELKKPGSSVKISCKASGYTFTNYGMNWVRQAPGKGLKWMGWINTYTGEPTYADDFKGRFTITAETSTSTLYLQLNNLRSEDTATYFCVRFMSKGDYWGQGTTVTVSS
B10: VK1/VH2 (antibody, V domains shown)
VH: QIQLVQSGPELKKPGSSVKISCKASGYTFTNYGMNWVRQAPGKGLKWMGWINTYTGEPTYADDFKGRFTITAETSTSTLYLQLNNLRSEDTATYFCVRFISKGDYWGQGTTVTVSS
VL: QIVLTQSPASLAVSPGQRATITCSASSSVSYILWYQQKPGQPPKPWIFDTSNLASGFPSRFSGSGSGTSYTLTINSLEAEDAATYYCHQRSGYPYTFGGGTKVEIK
B11: VK1/VH2.4-IL2 (protein)
VL: QIVLTQSPASLAVSPGQRATITCSASSSVSYILWYQQKPGQPPKPWIFDTSNLASGFPSRFSGSGSGTSYTLTINSLEAEDAATYYCHQRSGYPYTFGGGTKVEIK
VH: QIQLVQSGPELKKPGSSVKISCKASGYTFTNYGMNWVRQAPGKGLKWMGWINTYTGEPTYADDFKGRFTITAETSTSTLYLQLNNLRSEDTATYFCVRFISKTGDYWGQGTTVTVSS
B12: VK1/VH2.5-IL2 (protein)
VL: QIVLTQSPASLAVSPGQRATITCSASSSVSYILWYQQKPGQPPKPWIFDTSNLASGFPSRFSGSGSGTSYTLTINSLEAEDAATYYCHQRSGYPYTFGGGTKVEIK
VH: QIQLVQSGPELKKPGSSVKISCKASGYTFTNYGMNWVRQAPGKGLKWMGWINTYTGEPTYADDFKGRFTITAETSTSTLYLQLNNLRSEDTATYFCVRFISKGDYWGTGTTVTVSS
B13: VK1/VH2.1-IL2 (protein)
VL: QIVLTQSPASLAVSPGQRATITCSASSSVSYILWYQQKPGQPPKPWIFDTSNLASGFPSRFSGSGSGTSYTLTINSLEAEDAATYYCHQRSGYPYTFGGGTKVEIK
VH: QIQLVQSGPELKKPGSSVKISCKASGYTFTNYGMNWVRQAPGKGLKWMGWINTYTGEPTYADDFKGRFTITAETSTSTLYLQLNNLRSEDTATYFCVRFIISKGDYWGQGTTVTVSS
B14: VK1/VH2.3-IL2 (protein)
VL: QIVLTQSPASLAVSPGQRATITCSASSSVSYILWYQQKPGQPPKPWIFDTSNLASGFPSRFSGSGSGTSYTLTINSLEAEDAATYYCHQRSGYPYTFGGGTKVEIK
VH: QIQLVQSGPELKKPGSSVKISCKASGYTFTNYGMNWVRQAPGKGLKWMGWINTYTGEPTYADDFKGRFTITAETSTSTLYLQLNNLRSEDTATYFCVRFISAKGDYWGQGTTVTVSS

Columns and labels:
[1] = target: soluble human EpCAM-murine Fc (KSA-muFc) (human) (UniProt P16422); assay: ELISA on plates coated with KSA-muFc; Group 1
[2] = target: soluble human EpCAM-murine Fc (KSA-muFc) (human) (UniProt P16422); assay: EpCAM binding assay (ELISA on KSA-muFc)
[3] = target: T1, human epithelial cell adhesion molecule …; assay: 125I-labelled protein on EpCAM-positive PC-3 tumor cells, saturation binding with Scatchard analysis
Method: Purified KS-1/4 antibodies were iodinated with ¹²⁵I using standard techniques, and increasing concentrations of labeled protein were incubated with the EpCAM-positive cell line PC-3. Saturation binding curves were generated and the dissociation constants were determined by Scatchard analysis.
In addition, the binding of iodinated VK8/VH7 and VK8/VH7-IL2 to EpCAM expressed on the surface of PC-3 tumor cells was compared to binding of iodinated VK0/VH0-IL2, using methods described in Example 1F. Within experimental error, essentially identical binding affinities were found for VK8/VH7 and VK0/VH0, and for VK8/VH7-IL2 and VK0/VH0-IL2.

[4] = target: soluble human EpCAM-murine Fc (KSA-muFc) (human) (UniProt P16422); assay: ELISA on plates coated with KSA-muFc; Group 2, control to which the group is normalized
[5] = target: soluble human EpCAM-murine Fc (KSA-muFc) (human) (UniProt P16422); assay: ELISA on plates coated with KSA-muFc; Group 2, normalized to VK8/VH7
[6] = target: soluble human EpCAM-murine Fc (KSA-muFc) (human) (UniProt P16422); assay: ELISA on plates coated with KSA-muFc; Group 3, normalized to VK8/VH7-IL2
[7] = target: soluble human EpCAM-murine Fc (KSA-muFc) (human) (UniProt P16422); assay: SPR (Biacore), EpCAM-muFc coupled to CM5 chip, fusion protein in solution

Row | Molecule | Relative binding (fold-increase in protein concentration required to reach an equivalent level of binding) [5] | Relative binding (fold-increase in protein concentration required to reach an equivalent level of binding) [6] | further results
1 | VK0/VH0 (Hybridoma chKS-1/4) (antibody) |  |  | Relative binding (fold-increase in protein concentration required to reach an equivalent level of binding) [1]: 1 fold
2 | B1 |  |  | fold less active in an EpCAM binding assay [2]: > 10 fold
3 | B2 |  |  | binding result [3]: binds; Relative binding (fold-increase in protein concentration required to reach an equivalent level of binding) [4]: 1 fold
4 | B3 | 8 fold |  | 
5 | B4 |  |  | Relative binding (fold-increase in protein concentration required to reach an equivalent level of binding) [1]: > 30 fold
6 | B5 | 1 fold |  | 
7 | B6 | 2 fold |  | 
8 | B7 |  | > 10 fold | 
9 | B8 | 1.5 fold |  | koff [7]: 0.00053 s⁻¹; kon [7]: 170000 M⁻¹ s⁻¹
10 | B9 | 5 fold | 2 fold | koff [7]: 0.0022 s⁻¹; kon [7]: 280000 M⁻¹ s⁻¹
11 | B10 | 1 to 2 fold |  | 
12 | B11 |  | 3 fold | 
13 | B12 | 3 to 4 fold |  | 
14 | B13 |  | > 10 fold | 
15 | B14 |  | 7 fold | 
